{
  "source": "paper PMC8989523",
  "about": "(Nucleic Acids Research, 2022)",
  "molecular_target": "the molecule itself",
  "test": "dynamic light scattering",
  "data": [
    {"protein": "hPXR LBD (residues 140–434) with an N-terminal His tag and an SRC-1 fragment tethered at the C-terminus (domain or fragment) VQGLTEEQRMMIRELMDAQMKTFDTTFSHFKNFRLPGVLSSGCELPESLQAPSREEAAKWSQVRKDLCSLKVSLQLRGEDGSVWNYKPPADSGGKEIFSLLPHMADMSTYMFKGIISFAKVISYFRDLPIEDQISLLKGAAFELCQLRFNTVFNAETGTWECGRLSYCLEDTAGGFQQLLLEPMLKFHYMLKKLQLHEEEYVLMQAISLFSPDRPGVLQHRVVDQLQEQFAITLKSYIECNRPQPAHRFLFLKIMAMLTELRSINAQHTQRLLRIQDIHPFATPLMQELFGITGSGGSGGSSHSSLTERHKILHRLLQEGSPS", "values": [
      {"measurement": "stoichiometry N", "result": 2}
    ]}
  ]
}
